Experimental data: the DeepSol protein solubility set

Experiment: soluble on expression in E. coli; label from the status in PepcDB or PDB records

| Sequence | soluble on expression in E. coli |
| --- | --- |
| MKILWIDLNSSYAHSSLALPALHAQIMTDPSIEWEIVSATINENTGMIVDEIYRHRPDILAATTWLFNHEQLMHVASRVKALLPEACLVLGGPEFLGDNEEFLRKNPFVDCVFRGEGEEVFPQWLTCWNHPEQWHTVPGLCYLTPNKEYKDNGIARVLNFAGLVPPEQSRFFNWSKPFVQLETTRGCFNTCAFCVSGGEKPVRTLSIESIRERLQLIHAHGIKNVRVLDRTFNYNPRRAKELLRLFLEFHPDIRFHLEIHPALLSEELKEELSLLPKGLLHLEAGIQSLREPVLEKSRRMGKLSDALDGLRFLCALPNMETHADLIAGLPLYHLHEIFEDVRTLAGYAAGEIQLESLKLLPGTEMRRRAEELGIKYSPLPPYEVLQTHEISVSELQTARQLSRLLDGFYNTPAWQALTRELILNDEQFLHRFLAYLTKANLIDQPMSLEKRGLILYEFCKQNYPEYQIQAAIAWIEAGMSLKKLPAEKVWTKRQIPPATWNIIYGEYKESLRLCFLPADEKGEHGYWFGFESEIQKASPVFKART | not soluble |
| MKQRQWQGWGPGEQAEQQHYLVQPRALAGGGDIRHVSEFLRASGWRDKSKTCGPLLMESPDRTVRVAYDPYILPGGWTIHGRTGAKGEWSAHLGLQTPVEIVAGLTDALTRPRSAHAPSVWEPLQEQNWHTRFADQNYTATSPDGAAWMQYRQDADGSAMWWTGAKDEEGNGWTAHFTPNTPMHLVQAFSTELAGPDPVMRPRGRVPHSAQIRTWSVSVKPSQLSAWQQARITAARAATWARSSTRGTRPRTTARPHTPTGGARTRRLEHHHHHH | not soluble |
| FLYSNTSYRTLYLAAILYKAKADIRIVHDHLNHTSLADLKFKKYVYNHFKTQGQVIYFICTKKIQKRLRMTADQCARVNLLSNIAD | soluble |
| MSDNALTSSRRFGGIARLYGDSALAHFSQAHVCVVGVGGVGSWAVEALARTGIGRLTLIDLDNVAESNVNRQLHALTGDFGKAKVTALRERITQINPQCEVFEIEDFVTEDNLPEYFGKGFDFVIDAIDQVRVKAAMAAYFVERKQPFVLSGGAGGQKNPALIQTADLSRVTHDPLLANLRYTLRKRYGFSRDTKANMRVPCVYSTENIVPPQSREACSADAAPQGLSCAGYGASMLVTASFGLYCAQAAVEHIADKKLEHHHHHH | soluble |
| MFIEVEKFVEARTNSIAQLLKAIDNDALVSGEVTKGPRTAAQRLPRHMRRRAMAYDIRRFPRTMREFAAAHLISKHAKKCPSRFARRKSANSRTKFGRSTSTKGIWLSTHVWHAKRFRMIQKWGFKLADRSFQRGFRAVLRDSNKNCVIRDRSYYTCVTIQCTDAYSKISQFSQKGCRGQSSRDEEEECHQLYMPGKYPFGYIGPARFQRLSGDKVHIWIHPSSKLQFMKALLEYYNLEKQENTEEDLYKNSEIKVSIDAENICRFHLSGPKCLSKLRDSIRFVNDEKFSSEHNYFLSVSDSVFQSSRDGEVINLLIEDPRTTWDRKTVLKHKKVNKEADNERIRVSKFWNKEFREMAIEKRMADSEFHKQNSSKINGVISTEAKVPIILIIRNEGLKALDGADILIPEPFAKDFWVSLQRRGVRASGLRDEYAAHLESKALYYPLDDVGSEAGRESELAMKKELIEKYLGKPHNRRCKHWSAVSVKYPFEFKWDELSQDWNLSNKPRSEAFVCRDLQKLRIIEEAMKKGSGLEEFQEPGMLIPVKLQFFGRGRPKKYGMVCLPTDDDLISIRKNRNREIIQTPPEASSQDSDIVEAMEIEEITVKKNQGFMSLEAAASEKPINLKLLFEETTKLDDKTTKRKRVNRKKRESKKRRKIEQEKRKEEAEVEEVQKLATKYRFSANREIIGRLVAGEQSVLAGHGVGIGYICANTLSLIASNYHKSKTVVMVRNSTSKYYHPAYVTILKNATKI | not soluble |
| SREGVLYDGDSLAYIIAKHRQQLGELQGGVAGTLMTNLAVEQAFERLGIPFARANVGDRYVSELLQQNDWYLGAENSGHIICRDKHTTGDGIISALQVLYALRDTGLTLADFMRDVPFF | not soluble |
| MIKLRMPAGGERYIDGKSVYKLYLMIKQHMNGKYDVIKYNWCMRVSDAAYQKRRDKYFFQKLSEKYKLKELALIFISNLVANQDAWIGDISDADALVFYREYIGRLKQIKFKFEEDIRNIYYFSKKVEVSAFKEIFEYNPKVQSSYIFKLLQSNIISFETFILLDSFLNIIDKHDEQTDNLVWNNYSIKLKAYRKILNIDSQKAKNVFIETVKSCKY | soluble |
| MMDLHTHTVYSDGIGLIRDNVAWAEKRGLKIVGISDHIHFFTPSRFSAYINEINVIKEESEIVVLAGIEANILENGPDITDEFRKKLDYAIASVHEWFGRNGTHEYINYVKKAIMDDNVDIIGHFGNSFPWIGYPTREEIDEILDLAEAYGKAFEISARYKVPDLEFIRECVKRGIKLSLATDAHRPEDVGKVSWSLKMLEKAGGTKEDLIFSEYL | soluble |
| MVNSKVLNTLEYQQVKQQLAPYLVSATGQQALNELHPMTSVADIQRALDETNDGAEVYRLKGGIPVARLADIKPHMKRLAIGATLNGSELGQVGRVLRTTRAITRFFAELLEDAPELEHHHHHH | not soluble |
| MEHKIVHVGDIPVANDKPFTLFAGMNVLESRDLAMQICEHYVKVTDKLGIPYVFKASFDKANRSSVHSYRGPGLEEGMKIFQELKETFGVKIITDVHTEAQAQPVADVVDVIQLPAFLARQTDLVEAMAKTGAVINVKKPQFMSPGQVGNIVEKFAECGNDKVILCERGSCHGYDNLVVDMLGFGVMKQASNGSPIIFDVTHSLQMRDPSGAASGGRREQTVELAKAGLATGIAGLFIEAHPNPDKARCDGPSALPLDKLEPFLAQMKALDDLIKSFAHIDIR | not soluble |
| MSLESVKCIFERHPDFASKFRPKNRHMKSTYMTVLLGLIKTMCQLPEELTDDDLDEASVAVSYVENGGLRLDWLEKKLAEVKAKKKKVETGKARLQRAEEELQKLNQKCLEMKAFLEKENADVSEANVPLSFEDVVSMIPLPNLHAKNAGYLVNGEVKIVVEINDLEVIGKLDVSEESEETNQPLKKIKLDDNDAVSFDSLNETSPVKESIDVNGFQVLPSEGHHHHHH | soluble |
| MGSDKIHHHHHHQTQVIAHRGFWKTEGSAQNSIAALLKADSIGCYGSEFDVWLAADDQLVVNHDPTFKGKRMENSPSTALTAIKLDNGESLPTLAKYLKAAQPLHTRLILELKAHSTPLRETKAIEKIVALVKDMGLEERMEYITFSLHATKEFIRLAPEGTPVYYLDGNLSPKELKELGCAGPDYHYTVFRKHPEWIQECHDLGMKVNAWTVNKTDDMKWLIDRKVDFITTNEPVQLKNLLKK | not soluble |
| NEPFHLATERNRVAVMSSGGKESLTTFGMLREIGADVFPVFFNESGGHWKTAKIAYDYMKKNYSNVHKVWSNVDRFYSFMNGHMPMLDQKEIRKTADSYPVQ | not soluble |
| MAHHHHHHMLHPSNALLTALLFVTTRMTNVESVKKKPLPYVKNYNLCDRSVRGIPSRHTKGTIRASTNPITTAPNEDKSDVYTPPISSGN | soluble |
| MSSFIEMIENITPDVYESLKLAVEIGKWSDGRKLTQEQRELSLQALIAWEAQNLPEDQRTGYMGPQECASKSAPVPNILFKSDAIH | not soluble |
| MNYGFVKVAAAVPHVKVADCKFNVERIESQIAIAEGKGVQIIVFPEMSITGYTCGDLFGQQILLEEAEMGLMQILNNTRQLDIISIVGMPVVVNSTVINAAVVIQKGKVLGVAAKTYLPNYKEFYEQRWFTSALQLTEDTVRLCGQIVPIGANLLFETSDTTFGIEICEDLWATIPPSSSLALQGAEIIFNMSADNEGIGKHHYLCSLISQQSARCIAGYVFSSCGFGESTTDVVFAGNGLIYENGSLLARSKRFCMEEQLIISEIDVERIRAERRINTTFAASQGNPGDKKAISVATEFVNSKELTLTRDFNSHPFVPQGAELDEHCEEVFSIQIAGLAQRLVHTKAKTAVVGISGGLDSTLALLVCVKTFDKLGLPRKDILGVTMPGFGTTDRTYNNAIDLMKSLGISIREISIQDACIQHFKDIDHDINVHDVTYENSQARERTQILMDIANQTWGMVVGTGDLSELALGWATYNGDHMSMYGVNGSIPKTLVKYLVQWVAENDMDEDAKATLLDIVDTPISPELIPADENLEHHHHHH | soluble |
| MEIDWLNAIPDSEDSEEDEEERQERARLLKEKEEEREACKKRYLERIEREEAQRFGKQFKIDPLTFAERLERKLIPAEKKQRYREFIPCVVDHFGGTDVHFVKAMESIKTENQLLDFLTAAHKPLIEQTEDSVLHDWLAEFYKETVTSLLEMTSITDHDLKCFKVGNVFDEVRTNAIQKKVQKMEMENFAERVREAKIKEAEERKATAEATRDVLESLEGMTLSHVKHDELEDELNTIALEELHSTTRDTSPPRTRLSTRAQSQLNAMVKHLFVPAAPTTSTEVPMEMDKDDDEMDAYDDSDLKILFSSTTKESLKMEMGEENDECNFEPSQVSKYPSFQASSQFDETRRYDYDEEGDNKELARLRRPTWRKILNYEKRIGTNFHRFTNAENANLWRRNLYEDKRKKTSKVQFVDYDSPLNKMRLFVRPNEQFFNADDGPMTDRIDFSLSDGFNVLATRKIMSPLVCGSNYDCEFMARTREGPQYLVRKTQSWMHSYCGNILGRFWYLRDRHADKYPGVKDSNYDQKRRQNFGLLRYYTLEELIEVFGLLLPDVQIAMRRGVRRENMPVSTVVKLKEKDREAVESPVQGVLLLTDWRLVHLFDNTAIVNAIIHYFPTNLGGVFFEAMTEYLTELLLDNTIEFHTIIFAFGGTPTFKKQDFLAFWKKLIVRTTQSIDVFWMAQDWCDGLNSTQEEIDQLNEFNHYVEQMFTMMRKNGNINYNYCDIRKQYNIPSLDPSFNRPNDFLLLEPIYRAYINHFVDECNCYLKGPFVKCQPRVHNGYAQRNGTKLEFSK | soluble |
| GPGSDGVWLEELEMEPSQYLPDLKEDELLKTPAVMVNLNRPMPEVLQELSKHPVRTRLSLTGTIIVARDSAHARMREMLEAGKPLPQYMKEHPVYYAGPAKQPDGLPSGSFGPTTAGRMDPFVDLFQSHGGSMVMLAKGNRSKQVTKACHKYGGFYLGSIGGPAAVLAQNAIKKVECLDMKDLGMEAVWRIEVENFPAFIVVDDKGNDFFEQL | soluble |
| MDIAEQLIQNAGKRSTPVRSAVLGVLLNAEDVLSHSEVLEHLQQLGAFDRVTVYRALDWLVTQGLVHKVAGAGRAWRFQVTRSESMHRHAHFQCHHCHKVFCLPEVQPVLPKELPSNFSIDSIELNIKGICADCGRAMMSQ | not soluble |
| GSHMAARRGALIVLEGVDGAGKSTQSRKLVEALCAAGHRAELLRFPERSTEIGKLLSSYLQKKSDVEDHSVHLLFSANRWEQVPLIKEKLSQGVTLVVDRYAFSGVAFTGAKENFSLDWCKQPDVGLPKPDLVLFLQLQLADAAKRGRARGELERYENGAFQERALRCFHQLMKDTTLNWKMVDASKSIEAVHEDIRVLSEDAIATATEKPLGELWK | soluble |
| MSLGGDNAEYGYVEQTHPAFIAGSFTTEKNAKSRYYLLAKYEMTVLQYSALTQAECPAPSNKQRLPVVSLSWMQAMEAADKYNIWLRENAADKLPKEDGVAGFLRLPTEVEWEFAARGGLNVSTAEFRDLRYPMPEGVNAYEWFAGTQSANGQLQLSGLLKPNPLGLHDMLGNVDEMMFEPFRLNKLDRQHGQAGGYVVRGGDFRTAQGELRSSLRKERNYYDAKAAATSKTTGVRLALASSTLTSRERVSSIETSWKKLGTGSGDTSQGEDKSAVQALGTLASGVADEALKEKLKALENQLRASNQQQEETRDQAIRASLNLGAFLCTKMLDDGKYLDFLQKNYALNCSAAEQDASCPMRKGKLDEQKDRLHKLSRYYASSLVDSATLYGEPLLARQIPVMGEIISRNEQLKELKPYLQTHWVNQQAFLKTQKIDTDAWLNRCKAVQEGHHHHHH | not soluble |
